B1: Copu9, (+)-δ-cadinol synthase from Coniophora puteana (enzyme, UniProt A0A5M3MXY8 1-349, looked up)
chain: MSPTATFTTTSSEENAPTKFILPDLVSDCTYPLLLNDNCEPVARASEQWLIAGARLQEPRRTKFMGLLAGELTAACYPHADASHLRVCVDFMNWLFNMDDWLDDFDVDDTWGMRHCCLGAFRDPVGFETDKLGGLMSKSFFSRFRQDGGPGCTERFIHTMDLFFIAVAQQAGDRANGITPDLESYITVRRDTSGCKPCFALIEYAAGIDLPDHVIYHPTLAAMEEATNDLVTWSNDIFSYNKEQVTDDTHNMIPVLMRERGLDLQGAVDFVGRLCKGTIERFETERARLPSWGPELDAQVQTYIEGLQNWIVGSLHWSFDSHRYFGKDGHAVKKHRIVKLLPKRVPQQA
notes: Copu9, sesquiterpene synthase ((+)-δ-cadinol synthase) of Coniophora puteana, XP_007765560; codon-optimised open reading frame; the crystal structure is complete except for the 13 N-terminal residues; no removal of the tag is described; Crystallised with three Mg2+ ions and alendronate (AHD); also called Copu9 WT; Copu9·Mg3·AHD; source: E. coli BL21 RIL DE3, purified (Ni2+-NTA, size exclusion …)
B2: Copu9 (Coniophora puteana RWD-64-598 SS2; N228A) (protein)
chain: B1 chain with N228A
notes: full-length, codon-optimized, N-terminal hexa-His tag (pET-M11), expressed in E. coli BL21 RIL DE3; homodimer; 13 N-terminal residues not visible in crystal
B3: Copu9 (Coniophora puteana RWD-64-598 SS2; P197C) (protein)
chain: B1 chain with P197C
notes: as for B2
B4: Copu9 (Coniophora puteana RWD-64-598 SS2; T73C) (protein)
chain: B1 chain with T73C
notes: as for B2
B5: Copu9 (Coniophora puteana RWD-64-598 SS2; T192N) (protein)
chain: B1 chain with T192N
notes: as for B2
B6: Copu9 (Coniophora puteana RWD-64-598 SS2; C76V) (protein)
chain: B1 chain with C76V
notes: as for B2
B7: Copu9 (Coniophora puteana RWD-64-598 SS2; C195V) (protein)
chain: B1 chain with C195V
notes: as for B2
B8: Copu9 (Coniophora puteana RWD-64-598 SS2; S314N) (protein)
chain: B1 chain with S314N
notes: as for B2
B9: Copu9 (Coniophora puteana RWD-64-598 SS2; G194A) (protein)
chain: B1 chain with G194A
notes: as for B2
B10: Copu9 (Coniophora puteana RWD-64-598 SS2) (protein)
chain: B1 chain
notes: as for B2

As usually defined, the stoichiometry N is the number of molecules, sites or subunits per partner or assembly. A word on the Km: it is the substrate concentration at which the rate is half of its maximum. The term kcat denotes the maximal rate divided by the concentration of active sites. What is called kcat/Km is the second-order rate constant that governs catalysis at low substrate concentration.

Where a chain is given by its changes, count along the chain named. In names and notes the source's numbering stands.

T1 sequence (A0A5M3MX24 entry or part of it): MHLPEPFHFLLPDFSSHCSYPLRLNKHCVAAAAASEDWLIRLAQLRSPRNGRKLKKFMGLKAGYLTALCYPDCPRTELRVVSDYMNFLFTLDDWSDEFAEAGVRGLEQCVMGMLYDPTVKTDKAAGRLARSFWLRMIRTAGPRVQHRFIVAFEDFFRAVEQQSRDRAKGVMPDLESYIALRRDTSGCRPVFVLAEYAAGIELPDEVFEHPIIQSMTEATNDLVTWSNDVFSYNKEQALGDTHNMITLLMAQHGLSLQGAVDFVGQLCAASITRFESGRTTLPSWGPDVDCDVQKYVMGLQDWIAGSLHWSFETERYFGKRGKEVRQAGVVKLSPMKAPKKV

One data set deals with the molecule itself. As to the kind of experiment: SEC; HighLoad Superdex S200 16/60; 20 mM Tris/HCl pH 7.5, 150 mM NaCl, 5 mM MgCl2; calibrated with a high molecular weight standard.
Settings: not given
Background: In gel filtration, larger molecules generally elute earlier.
Take B1: the “stoichiometry N” value was determined as 2.

Substrate in another data set: CC(C)=CCC/C(C)=C/CC/C(C)=C/CO[P@@](=O)(O)OP(=O)(O)O
As to the kind of experiment: purified protein. Format: biochemical, Coniophora puteana. The following applies: 25 °C, FPP 0-70 µM in methanol, 0.8–1.2 µM enzyme.
On to B2, for which the Michaelis constant (Km) is on record as 4.42 ± 0.59 µM, the catalytic constant (kcat) stood at 0.0262 ± 0.0007 s⁻¹ and the kcat/Km was found to be 5940 M⁻¹ s⁻¹.
The like results for B3 were, in that order, 6.82 ± 0.77 µM, 0.0381 ± 0.001 s⁻¹ and 5580 M⁻¹ s⁻¹.
With B4, the Michaelis-Menten constant (Km) was found to be 6.28 ± 1.37 µM, the turnover number (kcat) was found to be 0.0502 ± 0.0026 s⁻¹ and the catalytic efficiency (kcat/Km) was 8000 M⁻¹ s⁻¹.
Taken in the same sequence, the figures for B5 were 8.28 ± 0.60 µM, 0.0396 ± 0.0008 s⁻¹ and 4780 M⁻¹ s⁻¹.
For the molecule B6, the Michaelis-Menten constant (Km) was determined as 3.14 ± 0.45 µM, the turnover number (kcat) came to 0.0291 ± 0.0007 s⁻¹ and the kcat/Km stood at 9250 M⁻¹ s⁻¹.
Consider B7, for which the Km came to 8.48 ± 0.51 µM, the catalytic constant (kcat) stood at 0.0398 ± 0.0007 s⁻¹ and the specificity constant (kcat/Km) came out at 4690 M⁻¹ s⁻¹.
The like results for B8 were, in that order, 5.10 ± 0.54 µM, 0.0192 ± 0.0005 s⁻¹ and 3760 M⁻¹ s⁻¹.
The like results for B9 were, in that order, 7.00 ± 0.37 µM, 0.036 ± 0.0005 s⁻¹ and 5140 M⁻¹ s⁻¹.
Consider B10, for which the Michaelis constant (Km) came out at 4.59 ± 0.17 µM, the kcat stood at 0.0324 ± 0.0003 s⁻¹ and the catalytic efficiency (kcat/Km) is 7070 M⁻¹ s⁻¹.

A further data set addresses T1, Copu5 (Coniophora puteana, UniProt A0A5M3MX24).
T1 construct: full-length, codon-optimized, N-terminal hexa-His tag (pET-M11) for thermal shift, expressed in E. coli BL21 RIL DE3; purified in pyrophosphate-containing buffer; pACYC-based operon in E. coli HMS174 (DE3) for terpene production
As to the kind of experiment: sesquiterpene production in E. coli, GC-MS and NMR of product. Format: cell-based. As to conditions: E. coli HMS174 (DE3) with DXS and IDI co-expression, endogenous FPP; product (+)-δ-cadinol.
`CC(C)=CCC/C(C)=C/CC/C(C)=C/COP(=O)(O)OP(=O)(O)O` [FPP]: the “sesquiterpene production in E. coli, GC-MS and NMR of product” value is recorded as “catalyze the formation of (+)-δ-cadinol as main product from its direct precursor FPP”.
